B1: Pistol ribozyme (parent)
chain: GGGUCGUUGUUCCAUAAUCGCGUGGAUAUGGCACGCAAGUUUCUACCGGGCACCGUAAAUGUCCGACUGGAGCCGUUCGGGCGGCUAUAAACAGACCUCAGGCCCGAAGCGUGGCGGCACCUGCCGCCGGUGGUAAAAAAGAUCGGAAGAGCACACGUCU

This data set covers variants of B1. Description: aptazyme ON/OFF ratio, guanine; higher = stronger switching; co-transcriptional cleavage with and without guanine.
On to U7A U8A G9C U10C U11A C12G C13U, for which the “aptazyme ON/OFF ratio” value was determined as 1.1.
To U7A U8G G9U U10C C12U C13U belongs 1.31; to U7G G9C U10G C12U C13A, 1.24.
Next, U8C G9U U10G U11C C12A: 1.62.
Next, U8C G9C U10C U11C C12U C13U: 1.01; U8G G9C U10C U11A C12U C13U: 1.04; U7G U8C G9A U10G U11C C13G: 1.07.
In the case of U7G U8C U10G U11G C12G, the “aptazyme ON/OFF ratio” value came out at 1.22.
For the variant U7G U8C G9U U10G U11C C12A, the “aptazyme ON/OFF ratio” value amounted to 2.33.
For the variant U7C U8A G9C U10C U11A, the “aptazyme ON/OFF ratio” value was 0.786.
U7G U8G G9U U10G: the “aptazyme ON/OFF ratio” value is 1.42.
With U7G U8G G9C U10G U11A C12G C13U, the “aptazyme ON/OFF ratio” value turned out to be 1.16.
To U7C U8G G9U U10C C12A C13A belongs 1.41; to U7G U8G G9A U10A C12G, 1.5.
In the case of U7C G9C U10A C12A C13A, the “aptazyme ON/OFF ratio” value turned out to be 1.09.
Next, U8G U10C U11A C12U C13A: 1.14.
Next, U7G U8C G9C U10A C12A: 1.09; U7C G9U U10G U11G C13G: 1.1; U8A G9C U10A U11C C12G: 1.1.
Next, U7G U8G G9U U10G U11G C12U C13U: 1.18.
For the variant U7A U8A G9A U10A C12A C13G, the “aptazyme ON/OFF ratio” value was 1.23.
To U7C U8G G9C U10C U11A C12G C13U belongs 1.12.
To U8G G9A U10G U11A C13U belongs 1.14; to U7A U8C U10G C12G C13G, 1.11.
With U7G U8G U10C U11C C12G C13U, the “aptazyme ON/OFF ratio” value was determined as 1.45.
For U7C U8G U10A C13U, the “aptazyme ON/OFF ratio” value is 1.46.
On to U7G U8A G9C U10G U11G, for which the “aptazyme ON/OFF ratio” value was 1.14.
To U7A U8G G9U U10G U11A C13G belongs 1.25; to U7A U8G G9U U10C U11C C12U C13G, 1.2.
As to U7G U8C G9U U10A U11G C12A C13G, the “aptazyme ON/OFF ratio” value came out at 1.09.
Next, U7G U8A G9A U11C C12A C13U: 1.1; U7C U8C G9C U10G U11C C12G C13G: 1.1.
Next, U7A U8G U10C U11C C13G: 1.13; U7A U8A G9A U11C C12U C13G: 1.21; U7C U8C G9C U11G C12U C13U: 1.1.
On to U8G U10C U11G C12G C13A, for which the “aptazyme ON/OFF ratio” value came out at 1.17.
As to U8A G9U U10C U11G C13A, the “aptazyme ON/OFF ratio” value was determined as 1.12.
Next, U8G U10G U11C C12A: 1.06.
To U8C U10C C12G C13A belongs 1.37; to U7C U8A G9U U10G U11C C12A C13U, 1.27.
To U7C U8G G9A U10C U11A C12U C13A belongs 1.07; to U7A U10C U11C C12G C13A, 1.04.
U7A G9U U11G C12A: the “aptazyme ON/OFF ratio” value worked out at 1.11.
To U7C G9A U10C U11A C12U C13G belongs 1.22.
U7C U8C G9C U11A: the “aptazyme ON/OFF ratio” value was 1.71.
To U8G G9C U10G C12U C13U belongs 1.26.
With U7A U8G G9C U10A C12G C13A, the “aptazyme ON/OFF ratio” value came out at 1.25.
To U7C U8G G9C U10G U11A C13A belongs 1.3; to U7G U8G G9U U10G U11G C12A C13G, 1.1.
Next, U7G U8C G9U U10A C13U: 2.29.
Next, U7G U8G G9C U10G U11A C12U C13U: 1.1.
Consider U7C U8A G9U U10G U11A C12A, for which the “aptazyme ON/OFF ratio” value is 1.34.
Next, U7G U8A G9U U10G U11A C12A C13U: 1.07; U7A U8C G9C U10C U11C C12A C13G: 1.03; U7C U8A G9A U10C U11C C12U: 1.04.
In the case of U7G U8A U10G U11A, the “aptazyme ON/OFF ratio” value was 2.15.
To U8C G9U U10G belongs 2.84; to U7A G9U U11C C12A C13U, 1.24.
Next, U7G U8A G9C U11A C12U C13A: 1.03.
To U7G U8A G9U U10A U11C C12U C13G belongs 1.07.
U8G G9U U11G C13U: the “aptazyme ON/OFF ratio” value stood at 1.05.
To U7G U8A G9A U11C C12G belongs 1.21; to U7A U8G U10A U11A C12A C13A, 1.34; to U8A U10A U11G C12U C13G, 1.45.
Next, U8A G9A U11G C12U C13A: 1.23; U7C U8G G9C U10A U11A C12A: 1.22; U7G U8A G9C U10G U11A C12A C13A: 1.04.
Next, U7G U8G U10A U11A C12A: 1.13.
With U8C G9C U10G U11A C13A, the “aptazyme ON/OFF ratio” value was 1.13.
As for U7C U8G G9U U10A U11A C13A, the “aptazyme ON/OFF ratio” value is 1.19.
Next, U7C U8G G9U U10A U11A C13G: 1.09.
Next, U7C U8A U10A U11A C12G C13A: 1.23.
Turning to U7C U8A G9C U10A C12G C13U, the “aptazyme ON/OFF ratio” value was found to be 1.26.
On to U7G U8C G9A U10C U11A C12U C13U, for which the “aptazyme ON/OFF ratio” value is 1.02.
In the case of U7A U8G G9U U11G C12U C13G, the “aptazyme ON/OFF ratio” value is 1.29.
For U7C U8C G9A U10G C12U C13G, the “aptazyme ON/OFF ratio” value stood at 1.16.
Regarding U7A G9A U11A C12A C13U, the “aptazyme ON/OFF ratio” value is 1.44.
To U7C U8C G9U U10A U11G C12G C13U belongs 1.07; to U7C G9A U10A U11C C13U, 1.07; to U7A U8A G9A U11C C12G C13A, 1.1.
Take U7G U8C C12U C13U: the “aptazyme ON/OFF ratio” value amounted to 1.07.
To U7G G9C U10A U11G C13U belongs 1.4; to U7A U8C G9C U10G U11G C12G, 1.13.

Values taken from the RNAGym collection of RNA variant scans (doi:10.1021/acssynbio.7b00057).
